In the RNAGym collection of RNA variant scans (doi:10.7554/elife.80360):

B1: HDV Ribozyme (parent)
chain: GGCCGGCAUGGUCCCAGCCUCCUCGCUGGCGCCGGCUGGGCAACAUUCCGAGGGGACCGUCCCCUCGGUAAUGGCGAAUGGGACCCA

Variants of: B1
Test: self-cleavage, relative activity (ratio to wild type); higher = more cleavage; co-transcriptional

Variant	self-cleavage
GCCCGGCAUGGUCCCAGCCUCCUCGCUGGCGCCGGCUGGGCAACAUACCGAGGGGACCGUCCCCUCGGUAAUGGCGAAUGGGACCCA [G2C U47A]	0.0208
GGCCGGCAUGAUCCCAGCCUCCUCGCUGGCGCCGGCUGGGCAACAUUCCGAGGGGACCGUCCCCUCGGUAAGGGCGAAUGGGACCCA [G11A U72G]	0.0923
GGCCGGCAUGGUCCCAGCCUCCUCGCUGGCGCCGGCUGGGCAACGUUCCGAGGGGACCGUCCCCUCGAUAAUGGCGAAUGGGACCCA [A45G G68A]	0.867
GGCCGGCAUGGUCCCAGCCUCCUCGCUGGCGCCGGCUGGGCAACAUUCCGAGGGGACCGUCCCCUCGGUAAUGGCGAAUGGGAGCGA [C84G C86G]	0.522
GGCCGACAUGGUCCCAGCCUCCUCGCUGGCGCCGGCUGGGCAACAUUCCGAGGGGACCGUCCCCUCGGUAAUGGCGAAAGGGACCCA [G6A U79A]	0.322
GGCCGGCAUGGUCCCAGCCUCCUCGCUGGCGCCGGCUGGGCAACAUUCCGAGGGGACCGUCCCCUCGGUAAUGGCUAAUGGGACCCA [G76U]	1.03
GGCCGGCAUGGUCCCAGCCUCCUCGCUGGCGCCGGCUGGGCAACAUUCCGAUGGGACCGUCCCCUCGGUAAUGGUGAAUGGGACCCA [G52U C75U]	0.115
GGCCGGCAUGGUCCCAGCCUCCUCGCUGGCGCCGGCUGGGCAACAUUCCGAGGUGACCGUCCCCUCGGUAAUGGCGAAUGGAACCCA [G54U G82A]	0.277
GGCCGGCAUGGUCCCAGCCUCCUGGCUGGCGCCGGCUGGGCCACAUUCCGAGGGGACCGUCCCCUCGGUAAUGGCGAAUGGGACCCA [C24G A42C]	0.101
GGCCGGCAUGGUCCCAGCCUCCUCGCUGGCGCCGGCUGGGCAACAUUCCGAGGGGAACGUCCCCUCGGUAAUGGCCAAUGGGACCCA [C57A G76C]	1.05
GGCCGGCAUGGUCCCAGCCUCCUCGCUGGCGCCGGCUAGGCAACAUUCCGAGGGGACCGUCUCCUCGGUAAUGGCGAAUGGGACCCA [G38A C62U]	0.153
GGCCGGCAUGGUCCCAGCCUCCUCGCUGGCGCCGGAUGGGCAACAUUCCGAGGGGACCGUCCCCUCGGUAAAGGCGAAUGGGACCCA [C36A U72A]	0.277
GGCCGGCAUGGUCCCAGCCUCCUCGCUGGCGCCGGCUGGGCAACAUUCCGAGGGGACCGUCCCCUCGGUAAUGGCGAAUGGGACCGG [C86G A87G]	0.905
GGCCGGCAUGGUCCCAGCCUCCUCGCUGGCGCCGGCUGGGCAACAUUCCGAGGGGAACGACCCCUCGGUAAUGGCGAAUGGGACCCA [C57A U60A]	0.898
GACCGGCAUGGGCCCAGCCUCCUCGCUGGCGCCGGCUGGGCAACAUUCCGAGGGGACCGUCCCCUCGGUAAUGGCGAAUGGGACCCA [G2A U12G]	0.0405
GGCCGGCAUGGUCCCAGCCUCCUCGCUGUCGCCGGCUGGGCAACAUUCCGAAGGGACCGUCCCCUCGGUAAUGGCGAAUGGGACCCA [G29U G52A]	0.168

Variant	self-cleavage
GGCCAGCAUGGUCCCAGCCUCCUAGCUGGCGCCGGCUGGGCAACAUUCCGAGGGGACCGUCCCCUCGGUAAUGGCGAAUGGGACCCA [G5A C24A]	0.0978
GGCCGGCAUGGUCCCAGCCUCCUCGGUGGCGCCGGCUGGGCAACAUUCCGAGGGGACCGUCCCCUCGGUAAUGACGAAUGGGACCCA [C26G G74A]	0.441
GGCCGGCAUGGUCCCAGCCUCCUCGCUGGCGCCGGCUGGGCAACAUUCUGAGGGGACCGUCCCCUCGGUAAUGGCGAAUGGGUCCCA [C49U A83U]	0.391
GGCCAGCAUGGUCCCACCCUCCUCGCUGGCGCCGGCUGGGCAACAUUCCGAGGGGACCGUCCCCUCGGUAAUGGCGAAUGGGACCCA [G5A G17C]	0.0594
GGCCGGCAUGGUCCCAGCCUCCUCGCCGGCGCCGGCUGGGCAGCAUUCCGAGGGGACCGUCCCCUCGGUAAUGGCGAAUGGGACCCA [U27C A43G]	0.383
GGCCGGCAUGGUCCCGGCCUCCUCGCUGGCGCCGGCUGGGCAACAUUCCGAGGGGACCGUCCCCUCGGUAAUGGCGAAUGCGACCCA [A16G G81C]	0.369
GGCCGGCAUGGUCCCAGCCUCCUCGCUGGCGUCGGCUCGGCAACAUUCCGAGGGGACCGUCCCCUCGGUAAUGGCGAAUGGGACCCA [C32U G38C]	0.233
GGCCGGCAUGGACCCAGCCUCCUCGCUGGCGCCGGCUGGGCCACAUUCCGAGGGGACCGUCCCCUCGGUAAUGGCGAAUGGGACCCA [U12A A42C]	0.147
GGCCGGCAUGGUCCCGGCCUCCUCGCUGGCGCUGGCUGGGCAACAUUCCGAGGGGACCGUCCCCUCGGUAAUGGCGAAUGGGACCCA [A16G C33U]	0.802
GGCCGGCAUGGACCCAGCCUCCUCGCUGGCGCCGGCUAGGCAACAUUCCGAGGGGACCGUCCCCUCGGUAAUGGCGAAUGGGACCCA [U12A G38A]	0
GGCCGGCAUGGUCCCAGCCUGCUCGCUGGCGCCGGCUGGGCAACAUUCCGAGGGGCCCGUCCCCUCGGUAAUGGCGAAUGGGACCCA [C21G A56C]	0.0386
GGCCGGCAUGGUCCCAGCCUCCGCGCUGGCGCCGGCUGGGUAACAUUCCGAGGGGACCGUCCCCUCGGUAAUGGCGAAUGGGACCCA [U23G C41U]	0.723
GGCCGGCAUGGUCCCAGCCUCCUCGCUGGCGCCGGCUGGGCAACAUUCGGAGGCGACCGUCCCCUCGGUAAUGGCGAAUGGGACCCA [C49G G54C]	0.762
GGCCGGCUUGGUCCCAGCCUCCUCGCUGGCGCCGGCUGGGCAACAUUCCGAGGGGACCGUCCCCUCGGUAAUGGCGAAUGGGGCCCA [A8U A83G]	0.746
GGCCGGCAUGGUCCCAGCCUGCUCGCUGGCGCCGGCUGGGCAACAUUCCGAGGGGACCGUCCCCUCGGUAAUUGCGAAUGGGACCCA [C21G G73U]	0.026
GGCCGGCAUGGUCCCAGCCACCUCGCUGGCGCCGGCUGGGCAACAUUCCGAGGGGACCGUCCCCUCGGAAAUGGCGAAUGGGACCCA [U20A U69A]	0
